Measurements reported in patent publication US8921515B2, “Methods and compositions of preparation for proteome analysis” (Case Western Reserve University, priority 2011, dated 2014).
“Also recorded” adds a separate entry of the source. Counter-ions that a name gives are not always drawn. Like-named read-outs stand apart in the source and are kept apart here. Square brackets hold non-standard residues; d marks the D form. Ends that are not written are not given here. Met(O) = CS(=O)CC[C@H](N)C(=O)O

Experiments:
[1] = pI values of BSA tryptic peptides; format: physicochemical
[2] = molecular target: T1, porcine trypsin (Sus scrofa, UniProt P00761); assay: Effect of solubilizing agents on trypsin amidase activity (Ac-Lys-p-nitroaniline hydrolysis, 405 nm); format: biochemical
T1 construct: purchased Promega
T1 sequence (P00761 9-231): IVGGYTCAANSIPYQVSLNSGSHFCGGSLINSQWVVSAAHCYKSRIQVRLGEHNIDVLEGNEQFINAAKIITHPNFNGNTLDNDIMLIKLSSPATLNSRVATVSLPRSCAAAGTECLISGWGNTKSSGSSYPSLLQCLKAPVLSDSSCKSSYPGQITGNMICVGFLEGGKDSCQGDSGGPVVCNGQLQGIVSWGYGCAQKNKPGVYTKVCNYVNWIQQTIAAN
Procedure: To measure the amidase activity of 100 nM trypsin, we tracked the hydrolysis of 2 mM Ac-Lys-p-nitro aniline hydrochloride through absorbance increase at 405 nm over 3 min in 100 mM ABC using an ELISA plate reader (Thermo-Fisher Scientific, Waltham, Mass.).

[3] = test system: OS membrane protein pellet; assay: Protein solubilization efficiencies of solubilizing agents (DC protein assay of supernatant)
Procedure: Bovine retinas obtained from WL Lawson Company (Omaha, Nebr.) were used to prepare the photoreceptor outer segment (OS) by sucrose density ultracentrifugation. All solvents used for bovine OS preparations contained protease inhibitors (1 mM EDTA, 0.2 mM PMSF, 0.7 μg/μL leupeptin, and 0.5 μg/μL pepstatin A) to inhibit protein degradation and 100 μM diethylenetriamine pentaacetic acid (DTPA) to inhibit oxidation.
The solubilized pellet solution was sonicated with a VirSonic 100 ultrasonic cell disrupter (SP Scientific, Gardiner, N.Y.) three times at 4.5 kHz of ultrasonic frequency for 9 seconds with 3-minute intervals between the sonications. The resulting protein extract was centrifuged at 15,000 g for 10 minutes, and the solubilized proteins in the supernatant were quantified using a DC protein assay kit (Bio-Rad, Hercules, Calif.).

[4] = cited from earlier work

M(o)PCTEDYLSLILNR ([Met(O)]PCTEDYLSLILNR; listed as Homo sapiens) [SEQ ID No: 14, tryptic peptide of BSA]
pI [1]: 4.4

RHPYFYAPELLYYANK (listed as Homo sapiens) [SEQ ID No: 8, tryptic peptide of BSA]
pI [1]: 8.4

KVPQVSTPTLVEVSR (listed as Homo sapiens) [SEQ ID No:5, tryptic peptide of BSA]
pI [1]: 8.8

DAFLGSFLYEYSR (listed as Homo sapiens) [SEQ ID No: 13, tryptic peptide of BSA]
pI [1]: 4.4

ECCHGDLLECADDR (listed as Homo sapiens) [SEQ ID No: 17, tryptic peptide of BSA]
pI [1]: 4.1

ETYGDM(o)ADCCEK (ETYGD[Met(O)]ADCCEK; cysteine pairing not given here; listed as Homo sapiens) [SEQ ID No: 20, tryptic peptide of BSA]
pI [1]: 3.9

LGEYGFQNALIVR (listed as Homo sapiens) [SEQ ID No: 10, tryptic peptide of BSA]
pI [1]: 6.0

KQTALVELLK (listed as Homo sapiens) [SEQ ID No: 6, tryptic peptide of BSA]
pI [1]: 8.6

YNGVFQECCQAEDK (listed as Homo sapiens) [SEQ ID No: 15, tryptic peptide of BSA]
pI [1]: 4.1

RHPEYAVSVLLR (listed as Homo sapiens) [SEQ ID No: 9, tryptic peptide of BSA]
pI [1]: 8.8

LVTDLTK (listed as Homo sapiens) [SEQ ID No: 1, tryptic peptide of BSA]
pI [1]: 5.8

YIYEIAR (listed as Homo sapiens) [SEQ ID No: 2, tryptic peptide of BSA]
pI [1]: 6.0

N=C(N)N [Gdn-HCl, guanidine hydrochloride]
trypsin activity retained ([2]; 0.1 M agent): 40% | trypsin activity retained ([2]; 0.25 M agent): 20% | Protein amount solubilized [3]: 7.3 ± 4.1 μg/10μ OS membrane preparation | protein solubilized from OS membrane protein pellet [3]: 7.3 µg

VPQVSTPTLVEVSR (listed as Homo sapiens) [SEQ ID No: 3, tryptic peptide of BSA]
pI [1]: 6.0

ETYGDMADCCEK (listed as Homo sapiens) [SEQ ID No: 21, tryptic peptide of BSA]
pI [1]: 3.9

NC(N)=O [Urea, urea]
trypsin activity retained ([2]; 2 M agent): approximately 50% | trypsin activity retained ([2]; 4 M agent): ~20% | Protein amount solubilized [3]: 8.1 ± 3.4 μg/10μ OS membrane preparation | protein solubilized from OS membrane protein pellet [3]: 8.1 µg

TCVADESHAGCEK (listed as Homo sapiens) [SEQ ID No: 19, tryptic peptide of BSA]
pI [1]: 4.7

O=C(O)C(F)(F)C(F)(F)C(F)(F)C(F)(F)C(F)(F)C(F)(F)C(F)(F)F [PFOA, perfluorooctanoic acid]
pKa ([4]; carboxyl group, at infinite dilution / diluted solution, determined experimentally): 3.8 | pKa ([4]; other reports): lower than 1 | trypsin activity retained ([2]; 0.5% surfactant, control without agent = 100%): more than 80% | trypsin activity retained ([2]; PFOA concentrations up to 0.25%, control without agent = 100%): fully enzymatically activity; also recorded: full activity | Protein amount solubilized ([3]; OS membrane pellet in 100 mM ABC with agent at the concentration printed in the row (25 mM SDS 0.8% w/v, 25 mM PFOA 1% w/v, 4M urea, 4M Gdn-HCl), mean ± SD, triplicate): 47.4 ± 4.4 μg/10μ OS membrane preparation | protein solubilized from OS membrane protein pellet ([3]; text: 100 mM ABC, 1% PFOA, 1% SDS, urea, Gdn-HCl): 47.4 µg

LVNELTEFAK (listed as Homo sapiens) [SEQ ID No: 4, tryptic peptide of BSA]
pI [1]: 4.5

LKPDPNTLCDEFK (listed as Homo sapiens) [SEQ ID No: 12, tryptic peptide of BSA]
pI [1]: 4.6

AEFVEVTK (listed as Homo sapiens) [SEQ ID No: 7, tryptic peptide of BSA]
pI [1]: 4.5

SLHTLFGDELCK (listed as Homo sapiens) [SEQ ID No: 11, tryptic peptide of BSA]
pI [1]: 5.3

TVMENFVAFVDK (listed as Homo sapiens) [SEQ ID No: 16, tryptic peptide of BSA]
pI [1]: 4.4

EYEATLEECCAK (listed as Homo sapiens) [SEQ ID No: 18, tryptic peptide of BSA]
pI [1]: 4.1
